IntAct's records for PubMed 31515488

Columns and labels:
reep6_human REEP6 = reep6_human REEP6 (UniProt Q96HR9)
atrap_human AGTRAP = atrap_human AGTRAP (UniProt Q6RW13)
tfp11_human TFIP11 = tfp11_human TFIP11 (UniProt Q9UBB9)
sdcb1_human SDCBP = sdcb1_human SDCBP (UniProt O00560)
tri23_human TRIM23 = tri23_human TRIM23 (UniProt P36406)
prdc1_human PRTFDC1 = prdc1_human PRTFDC1 (UniProt Q9NRG1)
k1h1_human KRT31 = k1h1_human KRT31 (UniProt Q15323)
rgs20_human RGS20 = rgs20_human RGS20 (UniProt O76081)
rgs20_human RGS20, sequence (O76081 whole entry): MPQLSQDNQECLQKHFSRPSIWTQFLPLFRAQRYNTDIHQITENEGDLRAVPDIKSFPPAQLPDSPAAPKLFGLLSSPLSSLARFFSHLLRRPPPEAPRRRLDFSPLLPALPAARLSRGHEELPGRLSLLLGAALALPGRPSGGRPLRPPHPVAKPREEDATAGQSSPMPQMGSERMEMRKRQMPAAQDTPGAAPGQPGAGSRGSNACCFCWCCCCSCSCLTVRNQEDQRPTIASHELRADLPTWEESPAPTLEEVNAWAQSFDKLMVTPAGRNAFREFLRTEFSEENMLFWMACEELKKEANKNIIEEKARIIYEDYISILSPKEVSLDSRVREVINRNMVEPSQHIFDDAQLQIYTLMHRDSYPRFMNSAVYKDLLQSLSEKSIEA

gpix_human GP9 = gpix_human GP9 (UniProt P14770)
grn_human GRN = grn_human GRN (UniProt P28799)
trip6_human TRIP6 = trip6_human TRIP6 (UniProt Q15654)
cryaa_human CRYAA = cryaa_human CRYAA (UniProt P02489)
cryaa_human CRYAA, sequence (P02489 whole entry): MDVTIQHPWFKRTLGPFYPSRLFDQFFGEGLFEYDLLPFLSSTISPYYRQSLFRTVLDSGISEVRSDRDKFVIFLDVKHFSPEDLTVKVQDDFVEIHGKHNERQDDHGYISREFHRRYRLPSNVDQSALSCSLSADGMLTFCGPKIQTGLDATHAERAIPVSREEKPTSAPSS

ei2ba_human EIF2B1 = ei2ba_human EIF2B1 (UniProt Q14232)
pygm_human PYGM = pygm_human PYGM (UniProt P11217)
TSC22D1 = TSC22D1 (UniProt Q15714)
gas7_human GAS7 = gas7_human GAS7 (UniProt O60861)
rpia_human RPIA = rpia_human RPIA (UniProt P49247)
vac14_human VAC14 = vac14_human VAC14 (UniProt Q08AM6)
pnma5_human PNMA5 = pnma5_human PNMA5 (UniProt Q96PV4)
tolip_human TOLLIP = tolip_human TOLLIP (UniProt Q9H0E2)
ncoa5_human NCOA5 = ncoa5_human NCOA5 (UniProt Q9HCD5)
gnmt_human GNMT = gnmt_human GNMT (UniProt Q14749)
mif_human MIF = mif_human MIF (UniProt P14174)
cdr2_human CDR2 = cdr2_human CDR2 (UniProt Q01850)
cdr2_human CDR2, sequence (Q01850 whole entry): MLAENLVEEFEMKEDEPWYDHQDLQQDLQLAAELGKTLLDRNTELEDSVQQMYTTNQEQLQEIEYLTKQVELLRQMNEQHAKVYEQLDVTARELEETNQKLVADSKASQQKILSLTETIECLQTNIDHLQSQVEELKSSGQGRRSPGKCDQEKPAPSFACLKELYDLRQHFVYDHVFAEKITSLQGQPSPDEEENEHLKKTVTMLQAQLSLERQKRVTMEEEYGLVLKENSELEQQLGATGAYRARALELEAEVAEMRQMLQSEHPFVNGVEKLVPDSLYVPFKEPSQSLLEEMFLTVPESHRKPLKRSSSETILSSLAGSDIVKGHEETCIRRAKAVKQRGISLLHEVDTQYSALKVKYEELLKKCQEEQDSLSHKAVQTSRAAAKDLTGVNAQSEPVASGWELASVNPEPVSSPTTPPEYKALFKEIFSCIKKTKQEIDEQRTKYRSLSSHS

prps2_human PRPS2 = prps2_human PRPS2 (UniProt P11908)
actg_human ACTG1 = actg_human ACTG1 (UniProt P63261)
dnja3_human DNAJA3 = dnja3_human DNAJA3 (UniProt Q96EY1)
birc2_human BIRC2 = birc2_human BIRC2 (UniProt Q13490)
ndka_human NME1 = ndka_human NME1 (UniProt P15531)
ndka_human NME1, sequence (P15531 whole entry): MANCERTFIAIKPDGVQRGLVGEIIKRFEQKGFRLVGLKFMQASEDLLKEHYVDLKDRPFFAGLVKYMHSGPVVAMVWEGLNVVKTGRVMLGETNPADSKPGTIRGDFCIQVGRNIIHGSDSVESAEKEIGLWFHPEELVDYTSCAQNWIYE

dhb14_human HSD17B14 = dhb14_human HSD17B14 (UniProt Q9BPX1)
actb_human ACTB = actb_human ACTB (UniProt P60709)
kctd1_human KCTD1 = kctd1_human KCTD1 (UniProt Q719H9)
mbip1_human MBIP = mbip1_human MBIP (UniProt Q9NS73)
mtnb_human APIP = mtnb_human APIP (UniProt Q96GX9)
nud14_human NUDT14 = nud14_human NUDT14 (UniProt O95848)
lonf1_human LONRF1 = lonf1_human LONRF1 (UniProt Q17RB8)
ca050_human C1orf50 = ca050_human C1orf50 (UniProt Q9BV19)
edad_human EDARADD = edad_human EDARADD (UniProt Q8WWZ3)
CCDC102B = CCDC102B (UniProt Q68D86)
cdd_human CDA = cdd_human CDA (UniProt P32320)
cdd_human CDA, sequence (P32320 whole entry): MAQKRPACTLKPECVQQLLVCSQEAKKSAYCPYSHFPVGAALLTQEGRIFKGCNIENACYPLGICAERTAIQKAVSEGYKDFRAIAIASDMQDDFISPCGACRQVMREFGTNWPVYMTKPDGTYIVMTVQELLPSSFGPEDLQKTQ

pnma1_human PNMA1 = pnma1_human PNMA1 (UniProt Q8ND90)
frih_human FTH1 = frih_human FTH1 (UniProt P02794)
lztl1_human LZTFL1 = lztl1_human LZTFL1 (UniProt Q9NQ48)
thap1_human THAP1 = thap1_human THAP1 (UniProt Q9NVV9)
dctp1_human DCTPP1 = dctp1_human DCTPP1 (UniProt Q9H773)
dctp1_human DCTPP1, sequence (Q9H773 whole entry): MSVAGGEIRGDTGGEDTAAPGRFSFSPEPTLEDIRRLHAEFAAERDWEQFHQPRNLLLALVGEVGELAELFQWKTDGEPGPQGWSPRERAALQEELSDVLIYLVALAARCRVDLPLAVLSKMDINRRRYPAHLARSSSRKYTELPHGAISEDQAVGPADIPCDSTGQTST

ubql1_human UBQLN1 = ubql1_human UBQLN1 (UniProt Q9UMX0)
naif1_human NAIF1 = naif1_human NAIF1 (UniProt Q69YI7)
efs_human EFS = efs_human EFS (UniProt O43281)
stat3_human STAT3 = stat3_human STAT3 (UniProt P40763)
dtx2_human DTX2 = dtx2_human DTX2 (UniProt Q86UW9)
dtx2_human DTX2, sequence (Q86UW9 whole entry): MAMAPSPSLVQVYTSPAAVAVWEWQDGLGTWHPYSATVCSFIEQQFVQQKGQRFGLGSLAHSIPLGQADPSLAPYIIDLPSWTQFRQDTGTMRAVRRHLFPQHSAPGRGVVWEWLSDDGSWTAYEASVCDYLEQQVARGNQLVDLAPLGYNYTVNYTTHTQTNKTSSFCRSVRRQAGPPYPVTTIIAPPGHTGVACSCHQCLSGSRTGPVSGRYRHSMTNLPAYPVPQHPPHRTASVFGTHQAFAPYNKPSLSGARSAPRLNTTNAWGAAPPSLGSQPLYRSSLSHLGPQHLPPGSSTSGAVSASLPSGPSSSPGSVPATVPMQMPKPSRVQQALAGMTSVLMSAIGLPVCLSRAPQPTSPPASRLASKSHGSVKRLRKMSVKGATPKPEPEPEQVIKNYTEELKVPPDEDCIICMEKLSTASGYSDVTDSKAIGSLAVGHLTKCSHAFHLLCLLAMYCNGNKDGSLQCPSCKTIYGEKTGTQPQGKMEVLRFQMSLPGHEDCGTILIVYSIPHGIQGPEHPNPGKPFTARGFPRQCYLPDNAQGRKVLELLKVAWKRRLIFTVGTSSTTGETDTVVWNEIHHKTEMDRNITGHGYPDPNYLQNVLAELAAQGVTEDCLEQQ

rnf14_human RNF14 = rnf14_human RNF14 (UniProt Q9UBS8)
rnf14_human RNF14, sequence (Q9UBS8 whole entry): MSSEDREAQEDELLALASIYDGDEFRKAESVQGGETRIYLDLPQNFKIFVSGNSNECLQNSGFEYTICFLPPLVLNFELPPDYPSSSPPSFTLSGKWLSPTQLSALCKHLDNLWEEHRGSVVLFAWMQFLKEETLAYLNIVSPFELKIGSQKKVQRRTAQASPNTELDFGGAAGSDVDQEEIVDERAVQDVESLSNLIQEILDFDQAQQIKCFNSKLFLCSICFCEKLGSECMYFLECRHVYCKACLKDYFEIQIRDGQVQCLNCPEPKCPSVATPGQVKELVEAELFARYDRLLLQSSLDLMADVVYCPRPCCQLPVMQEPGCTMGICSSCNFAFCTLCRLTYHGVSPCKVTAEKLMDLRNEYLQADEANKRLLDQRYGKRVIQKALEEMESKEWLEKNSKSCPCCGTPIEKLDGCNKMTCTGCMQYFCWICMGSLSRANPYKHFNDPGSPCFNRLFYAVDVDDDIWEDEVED

rn115_human RNF115 = rn115_human RNF115 (UniProt Q9Y4L5)
trim1_human MID2 = trim1_human MID2 (UniProt Q9UJV3)
otub1_human OTUB1 = otub1_human OTUB1 (UniProt Q96FW1)
otub1_human OTUB1, sequence (Q96FW1 whole entry): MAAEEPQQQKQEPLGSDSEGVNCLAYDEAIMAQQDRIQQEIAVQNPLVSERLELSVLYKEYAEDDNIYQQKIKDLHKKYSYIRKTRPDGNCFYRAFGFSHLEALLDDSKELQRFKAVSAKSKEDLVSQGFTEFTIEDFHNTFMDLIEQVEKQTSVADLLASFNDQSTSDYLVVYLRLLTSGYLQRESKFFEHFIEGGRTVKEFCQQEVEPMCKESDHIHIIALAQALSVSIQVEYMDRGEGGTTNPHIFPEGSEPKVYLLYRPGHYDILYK

Measured: effect of a mutation on the interaction

Homeobox protein Hox-A1 (Homo sapiens), P49639 S98R, sequence (P49639 whole entry S98R): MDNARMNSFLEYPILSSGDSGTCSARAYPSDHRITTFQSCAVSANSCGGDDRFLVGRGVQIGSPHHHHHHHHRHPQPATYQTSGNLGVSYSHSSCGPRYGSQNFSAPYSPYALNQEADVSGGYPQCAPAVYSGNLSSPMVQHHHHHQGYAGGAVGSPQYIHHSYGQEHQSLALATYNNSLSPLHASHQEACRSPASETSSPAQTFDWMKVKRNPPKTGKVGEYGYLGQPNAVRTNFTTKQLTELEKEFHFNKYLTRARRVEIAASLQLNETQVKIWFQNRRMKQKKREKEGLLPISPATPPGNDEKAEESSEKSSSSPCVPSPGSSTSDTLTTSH
Ubiquitin-conjugating enzyme E2 D4 (Homo sapiens), Q9Y2X8 G27S, sequence (Q9Y2X8 whole entry G27S): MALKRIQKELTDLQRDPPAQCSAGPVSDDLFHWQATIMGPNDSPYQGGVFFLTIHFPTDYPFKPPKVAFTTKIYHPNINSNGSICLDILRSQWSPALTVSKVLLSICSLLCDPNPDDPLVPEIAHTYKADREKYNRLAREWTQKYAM
FAD synthase (Homo sapiens), Q8NFF5 R228H, sequence (Q8NFF5 whole entry R228H): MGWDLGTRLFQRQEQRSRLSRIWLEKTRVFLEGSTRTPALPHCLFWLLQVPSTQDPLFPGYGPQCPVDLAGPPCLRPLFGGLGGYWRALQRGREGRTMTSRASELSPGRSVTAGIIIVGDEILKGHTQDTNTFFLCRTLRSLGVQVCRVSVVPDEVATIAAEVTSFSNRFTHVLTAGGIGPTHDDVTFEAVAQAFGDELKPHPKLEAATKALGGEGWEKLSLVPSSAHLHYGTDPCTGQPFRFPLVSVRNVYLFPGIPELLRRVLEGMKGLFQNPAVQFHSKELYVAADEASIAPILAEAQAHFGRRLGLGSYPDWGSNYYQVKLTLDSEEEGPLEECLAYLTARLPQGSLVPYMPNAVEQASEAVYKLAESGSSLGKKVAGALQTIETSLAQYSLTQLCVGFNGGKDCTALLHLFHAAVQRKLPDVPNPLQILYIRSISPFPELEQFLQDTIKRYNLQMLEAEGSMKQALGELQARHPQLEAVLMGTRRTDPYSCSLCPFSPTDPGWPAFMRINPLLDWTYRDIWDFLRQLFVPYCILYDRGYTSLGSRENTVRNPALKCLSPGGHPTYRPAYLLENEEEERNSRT
Tyrosine-protein kinase Blk (Homo sapiens), P51451 A71T, sequence (P51451 whole entry A71T): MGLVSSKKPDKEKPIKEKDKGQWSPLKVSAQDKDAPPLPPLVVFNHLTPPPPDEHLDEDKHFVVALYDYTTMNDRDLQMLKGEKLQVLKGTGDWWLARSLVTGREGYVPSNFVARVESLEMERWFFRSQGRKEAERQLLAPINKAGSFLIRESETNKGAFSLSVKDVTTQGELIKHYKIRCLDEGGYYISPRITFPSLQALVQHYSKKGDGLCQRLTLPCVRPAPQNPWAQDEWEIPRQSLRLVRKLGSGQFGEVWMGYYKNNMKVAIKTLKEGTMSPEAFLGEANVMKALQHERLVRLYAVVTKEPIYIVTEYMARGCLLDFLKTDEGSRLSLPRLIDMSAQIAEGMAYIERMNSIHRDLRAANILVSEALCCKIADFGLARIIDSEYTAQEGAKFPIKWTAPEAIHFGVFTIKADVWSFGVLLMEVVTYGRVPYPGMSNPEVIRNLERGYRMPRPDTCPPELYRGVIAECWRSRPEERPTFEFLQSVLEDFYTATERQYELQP
Thioredoxin domain-containing protein 12 (Homo sapiens), O95881 T80M, sequence (O95881 whole entry T80M, the tested form may be a part): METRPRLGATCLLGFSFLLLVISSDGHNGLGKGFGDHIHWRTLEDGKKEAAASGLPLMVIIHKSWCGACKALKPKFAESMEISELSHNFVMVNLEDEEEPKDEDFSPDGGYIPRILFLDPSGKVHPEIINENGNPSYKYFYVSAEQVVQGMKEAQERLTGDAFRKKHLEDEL
Transcription factor SOX-14 (Homo sapiens), O95416 A107G, sequence (O95416 whole entry A107G): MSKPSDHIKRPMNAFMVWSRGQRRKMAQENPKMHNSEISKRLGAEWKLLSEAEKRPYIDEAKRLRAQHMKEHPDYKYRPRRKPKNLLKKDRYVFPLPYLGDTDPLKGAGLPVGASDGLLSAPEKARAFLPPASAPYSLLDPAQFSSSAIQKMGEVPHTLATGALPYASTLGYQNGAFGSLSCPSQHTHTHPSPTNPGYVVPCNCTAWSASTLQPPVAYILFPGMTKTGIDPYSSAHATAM

Atypical kinase COQ8A, mitochondrial (Homo sapiens), Q8NI60 D100Y
with no effect: reep6_human REEP6 | atrap_human AGTRAP | tfp11_human TFIP11

FAD synthase (Homo sapiens), Q8NFF5 R228H
with no effect: sdcb1_human SDCBP | tri23_human TRIM23 | prdc1_human PRTFDC1

Homeobox protein Hox-A1 (Homo sapiens), P49639 S98R
with no effect: k1h1_human KRT31 | rgs20_human RGS20 | gpix_human GP9 | grn_human GRN | trip6_human TRIP6

Protein N-terminal glutamine amidohydrolase (Homo sapiens), Q96HA8 A52G
not listed: reep6_human REEP6 | atrap_human AGTRAP | tfp11_human TFIP11 | sdcb1_human SDCBP | tri23_human TRIM23 | prdc1_human PRTFDC1 | k1h1_human KRT31 | rgs20_human RGS20 | gpix_human GP9 | grn_human GRN | trip6_human TRIP6 | ubql1_human UBQLN1 | naif1_human NAIF1 | efs_human EFS | stat3_human STAT3 | dtx2_human DTX2 | rnf14_human RNF14 | rn115_human RNF115 | trim1_human MID2 | otub1_human OTUB1
with no effect: all other assays above

Thioredoxin domain-containing protein 12 (Homo sapiens), O95881 T80M
with no effect: ubql1_human UBQLN1

Transcription factor SOX-14 (Homo sapiens), O95416 A107G
with no effect: naif1_human NAIF1

Tyrosine-protein kinase Blk (Homo sapiens), P51451 A71T
with no effect: efs_human EFS | stat3_human STAT3

Ubiquitin-conjugating enzyme E2 D4 (Homo sapiens), Q9Y2X8 G27S
with no effect: dtx2_human DTX2 | rnf14_human RNF14 | rn115_human RNF115 | trim1_human MID2 | otub1_human OTUB1
